# According to patent US20240238445A1, “INHIBITORS AND USES THEREOF” (NEURACLE SCIENCE CO., LTD., priority 2021, published 2024):
# Ends that are not written are not given here.
# B1: full-length LRRC4C protein: full-length ectodomain of LRRC4C protein, amino acids 45-527 of SEQ ID NO: 3, conjugated to human Fc (protein)
# chain: QTCPSVCSCSNQFSKVICVRKNLREVPDGISTNTRLLNLHENQIQIIKVNSFKHLRHLEILQLSRNHIRTIEIGAFNGLANLNTLELFDNRLTTIPNGAFVYLSKLKELWLRNNPIESIPSYAFNRIPSLRRLDLGELKRLSYISEGAFEGLSNLRYLNLAMCNLREIPNLTPLIKLDELDLSGNHLSAIRPGSFQGLMHLQKLWMIQSQIQVIERNAFDNLQSLVEINLAHNNLTLLPHDLFTPLHHLERIHLHHNPWNCNCDILWLSWWIKDMAPSNTACCARCNTPPNLKGRYIGELDQNYFTCYAPVIVEPPADLNVTEGMAAELKCRASTSLTSVSWITPNGTVMTHGAYKVRIAVLSDGTLNFTNVTVQDTGMYTCMVSNSVGNTTASATLNVTAATTTPFSYFSTVTVETMEPSQDEARTTDNNVGPTPVVDWETTNVTTSLTPQSTRSTEKTFTIPVTDINSGIPGIDEVMKTTK
# modifications: conjugated to human Fc
# B2: LRRC4 full-length ectodomain: full-length ectodomain of LRRC4 protein, amino acid residues 39-527 of SEQ ID NO: 1, conjugated to human Fc (protein)
# chain: ASAGPQNCPSVCSCSNQFSKVVCTRRGLSEVPQGIPSNTRYLNLMENNIQMIQADTFRHLHHLEVLQLGRNSIRQIEVGAFNGLASLNTLELFDNWLTVIPSGAFEYLSKLRELWLRNNPIESIPSYAFNRVPSLMRLDLGELKKLEYISEGAFEGLFNLKYLNLGMCNIKDMPNLTPLVGLEELEMSGNHFPEIRPGSFHGLSSLKKLWVMNSQVSLIERNAFDGLASLVELNLAHNNLSSLPHDLFTPLRYLVELHLHHNPWNCDCDILWLAWWLREYIPTNSTCCGRCHAPMHMRGRYLVEVDQASFQCSAPFIMDAPRDLNISEGRMAELKCRTPPMSSVKWLLPNGTVLSHASRHPRISVLNDGTLNFSHVLLSDTGVYTCMVTNVAGNSNASAYLNVSTAELNTSNYSFFTTVTVETTEISPEDTTRKYKPVPTTSTGYQPAYTTSTTVLIQTTRVPKQVAVPATDTTDKMQTSLDEVMKTTK
# modifications: conjugated to human Fc
# What was measured:
# [1] = biological target: hFc-fused hLRRC4B and FAM19A5 complex formation (Homo sapiens, UniProt Q7Z5A7); test: Competitive inhibition assay (IC50), plate coated with LRRC4B(453-576, TT/TT)-hFc; format: binding; conditions: Table 14; LRRC4B(453-576, TT/TT)-hFc 100 nM coat; peptide 0.03-1000 nM; read-out: IC50 (nM), Inhibition on Complex Formulation between human LRRC4B protein and recombinant FAM19A5 protein (1 ng/mL)
# Method: The in silico analysis provided in Example 9 highlighted that certain T12 and L13 double mutants might be important in improving the binding affinity of the polypeptides of the present disclosure to the FAM19A5 protein. Therefore, the ability of both the wild-type FB-21 peptide (which is the same as the FB-20 peptide described herein except that the FB-21 peptide additionally contains an alanine at the C-terminus) and several FB-21 mutants were tested for their inhibitor effect on hFc-fused hLRRC4B and FAM19A5 complex formation. Briefly, plate was coated with 100 nM of LRRC4B(453-576, TT/TT)-hFc and then 1 ng/ml of rFAM19A5 was incubated at 37° C. in the presence of increasing concentrations of the different FB-21 peptide fragments (0.03, 0.1, 0.3, 1, 3, 10, 30, 100, 300 and 1000 nM). The LRRC4B-bound FAM19A5 levels were measured using HRP-conjugated 1-65 antibody.
# FAM19A5 protein [2] = biological target: T1, FAM19A5 protein (Homo sapiens, UniProt Q7Z5A7); test: competitive inhibition ELISA, 20 nM peptide, rFAM19A5 1 ng/mL; competitor: coated LRRC4B(453-576)-hFc
# FAM19A5 protein [3] = biological target: T1, FAM19A5 protein; test: competitive inhibition ELISA, 20 nM peptide, rFAM19A5 5 ng/mL; competitor: coated LRRC4B(36-576)-hFc
# FAM19A5 protein [4] = biological target: T1, FAM19A5 protein; test: ELISA binding of recombinant FAM19A5 to coated hFc-conjugated LRRC4 family ectodomains, fragments or synthetic peptides
# Method: Next, to confirm the above co-immunoprecipitation results, an ELISA assay was used to measure the binding of the FAM19A5 protein to either the full-length ectodomain of members of LRRC4 protein family or various LRRC4B ectodomain protein fragments. Specifically, an ELISA plate was coated with one of the following LRRC4B ectodomain protein, which was conjugated to human Fc (100 nM/well): (1) full-length ectodomain of LRRC4 protein (amino acid residues 39-527 of SEQ ID NO: 1) (SEQ ID NO: 4); (2) full-length ectodomain of LRRC4B protein (amino acids 36-576 of SEQ ID NO: 2; i.e., construct #7 in Table 6) (SEQ ID NO: 5); (3) full-length ectodomain of LRRC4C protein (amino acids 45-527 of SEQ ID NO: 3) (SEQ ID NO: 6); (4) LRRC4B ectodomain fragment (amino acids 453-576 of SEQ ID NO: 2; i.e., construct #11 in Table 6) (SEQ ID NO: 7); (5) LRRC4B ectodomain fragment (amino acids 484-576 of SEQ ID NO: 2; i.e., construct #12 in Table 6) (SEQ ID NO: 8); (6) LRRC4B ectodomain fragment (amino acids 482-576 of SEQ ID NO: 2) (SEQ ID NO: 9); (7) LRRC4B ectodomain fragment (amino acids 482-497 of SEQ ID NO: 2) (SEQ ID NO: 10); and (8) LRRC4B ectodomain fragment (amino acids 498-576 of SEQ ID NO: 2; i.e., construct #13 in Table 6) (SEQ ID NO: 11). Then, recombinant FAM19A5 proteins (0.005, 0.01, 0.025, 0.05, 0.1, 0.25, 0.5, 1, 2.5, 5, and 10 nM) were added to the relevant wells, and the plates were incubated at 37° C. for 1 hour. Afterwards, the amount of LRRC4B-bound FAM19A5 protein was detected using HRP-conjugated anti-FAM19A5 (1-65) antibody.
# As further confirmation, three synthetic polypeptides comprising amino acids 484-497 of SEQ ID NO: 2 (i.e., YTYFTTVTVETLET; SEQ ID NO: 65) were constructed: (1) FB-16 (GYTYFTTVTVETLETQ; SEQ ID NO: 17), (2) FB-20 ([…]; SEQ ID NO: 18), and (3) FB-28 ([…]; SEQ ID NO: 19). The peptides differed in their total length. The ability of these polypeptides to bind to recombinant FAM19A5 protein was assessed using an ELISA assay as described above.
# Target sequence in this assay (Q7Z5A7 44-132): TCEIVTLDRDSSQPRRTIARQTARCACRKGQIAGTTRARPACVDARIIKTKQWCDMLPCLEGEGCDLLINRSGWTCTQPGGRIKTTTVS
Molecule,Inhibition rate (%) (FAM19A5 protein [2]),Inhibition rate (%) (FAM19A5 protein [3]),other results
GYTYFTTVTVEHFETQPGEEA [FB-21 (H12F13)],,,IC50 [1]: 9.8 nM
GYTYFTTVTVEIFETQPGEEA [FB-21 (I12F13)],,,IC50 [1]: 9.9 nM
GYTYFTTVTVEMRETQPGEEA [FB-21 (M12R13)],,,IC50 [1]: 47.9 nM
GYTYFTTVTVEPYETQPGEEA [FB-21 (P12Y13)],,,IC50 [1]: 39 nM
GYTYFTTVTVEQRETQPGEEA [FB-21 (Q12R13)],,,IC50 [1]: 39.9 nM
KNYTYFTTVTVNKETQ [FB-m9dC],2.7%,16.8%,
KNYTYFTTVNKETQ [FB-m7dC],0.4%,4.4%,
KNYTYFTTVTVENKETQ [FB-m10dC],21.9%,62%,
KNFTTVTVETNKETQ [FB-m8dN],-1.1%,3.3%,
KNYTYFTTVTVETNKETQ [FB-m11dC],30.4%,65%,
B1,,,"binding to FAM19A5 protein (ELISA, in words) (FAM19A5 protein [4]; coated 100 nM/well, FAM19A5 up to 10 nM): No saturation in binding was observed"
KNYTYFTTVTNKETQ [FB-m8dC],-0.9%,5.1%,
B2,,,"EC50 (FAM19A5 protein [4]; hFc-conjugated ectodomain coated 100 nM/well, FAM19A5 0.005-10 nM, 37° C. 1 hour): 0.48 nM"
KNYFTTVTVETNKETQ [FB-m9dN],-1.6%,2.5%,
KNTTVTVETNKETQ [FB-m7dN],-1.8%,2%,
KNTYFTTVTVETNKETQ [FB-m10dN],0%,7.7%,
KNYTYFTTNKETQ [FB-m6dC],5.5%,14.9%,
